# In patent EP0251446B1, “Non-human Carbonyl hydrolase mutants, DNA sequences and vectors encoding same and hosts transformed with said vectors” (GENENCOR INTERNATIONAL, INC., priority 1986, dated 1988):
# Substitutions are numbered along the chain they refer to. Numbers in names are those of the source. *1 amine or outer side, *2 acyl side, *3 side chain or, on linkers, in order; H or OH if unused. Where a SMILES comes first, the peptide text is derived from it. The star is where a group is joined. pNA = O=[N+]([O-])c1ccc(N*)cc1; Suc = O=C(CCC(=O)[*:2])[*:1]
# T1: B. amyloliquefaciens subtilisin deletion mutant S153/S156/A158/G159/S160/Δ161-164/I165/S166/A169/R170 (Bacillus amyloliquefaciens, UniProt P00782, A260S/DEL268-271/E263S/G267S/G273S/G276A/K277R/S266G/T265A/V272I)
# T1 construct: made in house
# T1 sequence (P00782 with tags, fused parts or gaps A260S/E263S/DEL265-265/S266A/S269I/DEL271-273/G276A/K277R): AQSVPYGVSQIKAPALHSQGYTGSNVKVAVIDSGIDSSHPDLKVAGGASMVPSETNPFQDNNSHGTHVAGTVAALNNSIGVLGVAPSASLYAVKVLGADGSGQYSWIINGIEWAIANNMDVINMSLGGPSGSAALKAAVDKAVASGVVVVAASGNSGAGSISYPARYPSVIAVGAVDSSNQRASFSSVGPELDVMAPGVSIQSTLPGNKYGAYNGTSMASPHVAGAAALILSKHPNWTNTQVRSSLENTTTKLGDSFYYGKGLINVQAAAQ
# T2: B. amyloliquefaciens subtilisin, wild type (WT, Gly166) (Bacillus amyloliquefaciens, UniProt P00782)
# T2 construct: at various amino acid residues within the mature form of the subtilisin molecule; made in house; host or cells: Bacillus subtilis (secreted, culture supernatant)
# T2 sequence (P00782 108-382): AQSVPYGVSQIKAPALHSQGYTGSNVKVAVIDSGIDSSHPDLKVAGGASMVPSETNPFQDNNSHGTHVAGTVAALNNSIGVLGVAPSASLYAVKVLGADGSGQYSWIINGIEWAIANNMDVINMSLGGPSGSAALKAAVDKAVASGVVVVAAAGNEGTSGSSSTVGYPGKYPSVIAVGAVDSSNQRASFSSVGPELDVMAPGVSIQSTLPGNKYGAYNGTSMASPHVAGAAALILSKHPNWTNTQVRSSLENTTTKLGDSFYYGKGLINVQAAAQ
# T3: B. amyloliquefaciens subtilisin variant L217 (Tyr217 to Leu) (Bacillus amyloliquefaciens, UniProt P00782, Y324L)
# T3 construct: made in house
# T3 sequence (P00782 108-382 Y324L): T2 sequence (P00782 108-382) with Y217L
# B1: B. amyloliquefaciens subtilisin variant N166 (Gly166 to Asn) (Bacillus amyloliquefaciens; G273N) (protein)
# chain: T2 sequence (P00782 108-382) with G166N
# notes: at various amino acid residues within the mature form of the subtilisin molecule; made in house; host or cells: Bacillus subtilis BG2036
# B2: B. amyloliquefaciens subtilisin variant Q166 (Gly166 to Gln) (Bacillus amyloliquefaciens; G273Q) (protein)
# chain: T2 sequence (P00782 108-382) with G166Q
# notes: as for B1
# Experiments:
# [1] = molecular target: T1, B. amyloliquefaciens subtilisin deletion mutant S153/S156/A158/G159/S160/Δ161-164/I165/S166/A169/R170; assay: Kinetics of p-nitroanilide substrate hydrolysis, deletion mutant; assay type: biochemical; conditions: Table V; substrate not given; method b166 gives kcat in s-1
# From the text: The effect of deletion of residues 161 through 164 has been shown by comparing the activity of the wild type (WT) enzyme with a mutant enzyme containing this deletion as well as multiple substitutions (i.e., S153/S156/A158/G159/S160/0161-164/1165/S166/A169/R170). This produced the following results:
# (§1) Wild-type subtilisin was purified from B. subtilis culture supernatants expressing the B. amyloliquefaciens subtilisin gene (Wells, J.A., et al. (1983) Nucleic Acids Res. 11, 7911-7925) as previously described (Estell, D.A., et al. (1985) J. Biol. Chem. 260, 6518-6521). Details of the synthesis of tetrapeptide substrates having the form succinyl-L-AlaL-AlaL-ProL-[X]-p-nitroanilide (where X is the P1 amino acid) are described by DelMar, E.G., et al. (1979) Anal. Biochem. 99, 316-320. Kinetic parameters, Km(M) and kcat-(s-^1) were measured using a modified progress curve analysis (Estell, D.A., et al. (1985) J. Biol. Chem. 260, 6518-6521). Briefly, plots of rate versus product concentration were fit to the differential form of the rate equation using a non-linear regression algorithm. Errors in kcat and Km for all values reported are less than five percent. The various substrates in Table VIII are ranged in order of decreasing hydrophobicity. Nozaki, Y. (1971), J. Biol. Chem. 246, 2211-2217; Tanford C. (1978) Science 200, 1012).
# [2] = molecular target: T2, B. amyloliquefaciens subtilisin, wild type (WT, Gly166); assay: Kinetics of hydrolysis of succinyl-Ala-Ala-Pro-X-p-nitroanilide substrates (progress curve analysis); assay type: biochemical
# From the text: A change in substrate specificity is defined as a difference between the kcat/Km ratio of the precursor carbonyl hydrolase and that of the hydrolase mutant. The kcat/Km ratio is a measure of catalytic efficienty. Carbonyl hydrolase mutants with increased or diminished kcat/Km ratios are described in the examples. Generally, the objective will be to secure a mutant having a greater (numerically large) kcat/Km ratio for a given substrate, thereby enabling the use of the enzyme to more efficiently act on a target substrate. A substantial change in kcat/Km ratio is preferably at least 2-fold increase or decrease. However, smaller increases or decreases in the ratio (e.g., at least 1.5-fold) are also considered substantial. An increase in kcat/Km ratio for one substrate may be accompanied by a reduction in kcat/Km ratio for another substrate. […] Km and kcat are measured in accord with known procedures, as described in EPO Publication No. 0130756 or as described herein.
# as §1
# [3] = molecular target: T3, B. amyloliquefaciens subtilisin variant L217 (Tyr217 to Leu); assay: Kinetics of p-nitroanilide substrate hydrolysis, L217; assay type: biochemical; conditions: substrate sAAPFpNa
# From the text: as §1
# Tyr217 has been substituted by all other 19 amino acids. Cassette mutagenesis as described in EPO publication No. 0130756 was used according to the protocol of Figure 22. The EcoRV restriction site was used for restriction-purification of pA217.
# Since this position is involved in substrate binding, mutations here effect kinetic parameters of the enzyme. […]
# [4] = substrate: C[C@H](NC(=O)CCC(=O)O)C(=O)N[C@@H](C)C(=O)N1CCC[C@H]1C(=O)N[C@@H](CCC(=O)O)C(=O)Nc1ccc([N+](=O)[O-])cc1; assay: Kinetics of p-nitroanilide substrate hydrolysis, N166; assay type: biochemical, B. amyloliquefaciens; conditions: other: Table XIV, 156 Glu / 166 Asn; value in parentheses; synthetic substrate with label as P-1 amino acid
# From the text: as §1
# (§2) The construction of subtilisin mutants containing the substitution of the ionic amino acids Asp, Asn, Gln, Lys and Ang are disclosed in EPO Publication No. 0130756. The present example describes the construction of the mutant subtilisin containing Glu at position 166 (E166) and presents substrate specificity data on these mutants. Further data on position 166 and 156 single and double mutants is presented infra.
# (§3) Each of these mutants was analyzed with the tetrapeptide substrates, succinyl-L-AlaL-AlaProL-X-p-nitroanilide, where X was Phe, Ala and Glu.
# [5] = substrate: C[C@H](NC(=O)CCC(=O)O)C(=O)N[C@@H](C)C(=O)N1CCC[C@H]1C(=O)N[C@@H](CCCCN)C(=O)Nc1ccc([N+](=O)[O-])cc1; assay: as above; assay type: biochemical, B. amyloliquefaciens; conditions: other: Table XIV, 156 Glu / 166 Asn; value in parentheses; synthetic substrate with label as P-1 amino acid
# From the text: as §1, §2, §3
# [6] = substrate: CSCC[C@H](NC(=O)[C@@H]1CCCN1C(=O)[C@H](C)NC(=O)[C@H](C)NC(=O)CCC(=O)O)C(=O)Nc1ccc([N+](=O)[O-])cc1; assay: as above; assay type: biochemical, B. amyloliquefaciens; conditions: other: Table XIV, 156 Glu / 166 Asn; value in parentheses; synthetic substrate with label as P-1 amino acid
# From the text: as §1, §2, §3
# [7] = substrate: C[C@H](NC(=O)CCC(=O)O)C(=O)N[C@@H](C)C(=O)N1CCC[C@H]1C(=O)N[C@@H](CCC(N)=O)C(=O)Nc1ccc([N+](=O)[O-])cc1; assay: as above; assay type: biochemical, B. amyloliquefaciens; conditions: other: Table XIV, 156 Glu / 166 Asn; value in parentheses; synthetic substrate with label as P-1 amino acid
# From the text: as §1, §2, §3
# [8] = substrate: C[C@H](NC(=O)CCC(=O)O)C(=O)N[C@@H](C)C(=O)N1CCC[C@H]1C(=O)N[C@@H](CCC(=O)O)C(=O)Nc1ccc([N+](=O)[O-])cc1; assay: Kinetics of p-nitroanilide substrate hydrolysis, Q166; assay type: biochemical, B. amyloliquefaciens; conditions: other: Table XIV, 156 Glu / 166 Gln; value in parentheses; synthetic substrate with label as P-1 amino acid
# From the text: as §1, §2, §3
# [9] = substrate: C[C@H](NC(=O)CCC(=O)O)C(=O)N[C@@H](C)C(=O)N1CCC[C@H]1C(=O)N[C@@H](CCCCN)C(=O)Nc1ccc([N+](=O)[O-])cc1; assay: as above; assay type: biochemical, B. amyloliquefaciens; conditions: other: Table XIV, 156 Glu / 166 Gln; value in parentheses; synthetic substrate with label as P-1 amino acid
# From the text: as §1, §2, §3
# [10] = substrate: CSCC[C@H](NC(=O)[C@@H]1CCCN1C(=O)[C@H](C)NC(=O)[C@H](C)NC(=O)CCC(=O)O)C(=O)Nc1ccc([N+](=O)[O-])cc1; assay: as above; assay type: biochemical, B. amyloliquefaciens; conditions: other: Table XIV, 156 Glu / 166 Gln; value in parentheses; synthetic substrate with label as P-1 amino acid
# From the text: as §1, §2, §3
# [11] = substrate: C[C@H](NC(=O)CCC(=O)O)C(=O)N[C@@H](C)C(=O)N1CCC[C@H]1C(=O)N[C@@H](CCC(N)=O)C(=O)Nc1ccc([N+](=O)[O-])cc1; assay: as above; assay type: biochemical, B. amyloliquefaciens; conditions: other: Table XIV, 156 Glu / 166 Gln; value in parentheses; synthetic substrate with label as P-1 amino acid
# From the text: as §1, §2, §3
molecule,measurement,setting,value
"C[C@H](NC(=O)CCC(=O)O)C(=O)N[C@@H](C)C(=O)N1CCC[C@H]1C(=O)N[C@@H](Cc1ccccc1)C(=O)Nc1ccc([N+](=O)[O-])cc1 [sAAPFpNa, succinyl-L-AlaL-AlaL-ProL-Phep-nitroanilide, reference compound] (Suc-AAPF-pNA)",kcat,[1],8
same,kcat,"[2]; Table V, substrate not given, method b166 gives kcat in s-1",50
same,kcat,"[2]; Table XIX, WT",50 s-^1
same,kcat,[3],277 5'
B1,Km,[4],6030 µM
same,Km,[5],1320 µM
same,Km,[6],141 µM
same,Km,[7],724 µM
B2,Km,[8],7590 µM
same,Km,[9],708 µM
same,Km,[10],43.7 µM
same,Km,[11],229 µM
